# Laboratory results published in publication PMC8784325, “The ubiquitin-binding domain of DNA polymerase η directly binds to DNA clamp PCNA and regulates translesion DNA synthesis” (The Journal of Biological Chemistry, 2021).
# B1: ScPolη F627A,F628A (protein, UniProt Q04049 1-632, looked up, variant F627A F628A)
# DNA polymerase eta: MSKFTWKELIQLGSPSKAYESSLACIAHIDMNAFFAQVEQMRCGLSKEDPVVCVQWNSIIAVSYAARKYGISRMDTIQEALKKCSNLIPIHTAVFKKGEDFWQYHDGCGSWVQDPAKQISVEDHKVSLEPYRRESRKALKIFKSACDLVERASIDEVFLDLGRICFNMLMFDNEYELTGDLKLKDALSNIREAFIGGNYDINSHLPLIPEKIKSLKFEGDVFNPEGRDLITDWDDVILALGSQVCKGIRDSIKDILGYTTSCGLSSTKNVCKLASNYKKPDAQTIVKNDCLLDFLDCGKFEITSFWTLGGVLGKELIDVLDLPHENSIKHIRETWPDNAGQLKEFLDAKVKQSDYDRSTSNIDPLKTADLAEKLFKLSRGRYGLPLSSRPVVKSMMSNKNLRGKSCNSIVDCISWLEVFCAELTSRIQDLEQEYNKIVIPRTVSISLKTKSYEVYRKSGPVAYKGINFQSHELLKVGIKFVTDLDIKGKNKSYYPLTKLSMTITNFDIIDLQKTVVDMFGNQVHTFKSSAGKEDEEKTTSSKADEKTPKLECCKYQVTFTDQKALQEHADYHLALKLSEGLNGAEESSKNLSFGEKRLLFSRKRPNSQHTATPQKKQVTSSKNILSAATRKK
# Key:
# [1] = tested on: rad30Δ S. cerevisiae strain; assay: UV sensitivity complementation (spot assay), rad30Δ strain; format: cell-based, Saccharomyces cerevisiae; settings: ADH1 promoter, UV 16–32 J/m^2, 30 °C, 3 days
# Experimental: Figure 1 Identification of PCNA interaction region in CaPolη.A, amino acid alignment between Ca- and Sc-Polη was carried out by EMBOSS Needle; identical amino acids are marked by ∗ and similar amino acids were marked by: symbols. All the important motifs and domains are underlined, including Motif I to V, PAD, ubz and pip. Putative pip sequences were labeled as Seq-1 through Seq-4 in the C-terminal domain. […] C, putative pip sequences of CaPolη were compared with the already identified pip motifs of other Y-family pols. D, line diagram showing various domains of Polηs and a C-terminal deletant CaPolη (1–512). E, determination of binding kinetics of wild type or truncated CaPolƞ (1–512) with CaPCNA by ITC. […] F, UV sensitivities of S. cerevisiae strains. Cells of genomic rad30Δ and rad30Δrev3Δ deletion S. cerevisiae strains harboring YEP-ADH1p or YEP-ADH1p-ScPolη or YEP-ADH1p-CaPolη or YEP-ADH1p-CaPolη (1–512) or YEP-ADH1p-CaPolη F485A,L486A plasmids from an overnight SD-Ura culture were serially diluted and spotted onto SD-Ura plates. […]
# Figure 2 Ubz domain of CaPolη is essential TLS activity.A, a line diagram showing the deletion and site-directed mutations in the ubz domain of CaPolη. […] Following UV irradiation, plates were incubated in the dark, and colonies were counted after 3 to 5 days. […]
# [2] = tested on: rad30Δ S. cerevisiae strain; settings: S. cerevisiae strains; cited from earlier work
molecule,measurement,setting,value
B1,UV sensitivity / complementation (in words),[1],abrogated its TLS function and displayed equal UV sensitivity with rad30Δ strain
same,UV sensitivity and UV-induced mutagenesis (in words),[2],enhanced UV sensitivity and UV-induced mutagenesis
